Patent US20260241018A1 (BIOCYTOGEN PHARMACEUTICALS BEIJING, published 2026)

Experiments:
[1] = molecular target: T1, His-tagged 5T4 protein of monkey (fas5T4, ACRO Biosystems Inc., Cat #: TPG-C52H3) (monkey, UniProt Q4R8Y9 35-355); experiment: SPR (Biacore 8K), antibody captured on Protein A chip, His-tagged 5T4 as analyte
T1 construct: Bought protein
T1 sequence: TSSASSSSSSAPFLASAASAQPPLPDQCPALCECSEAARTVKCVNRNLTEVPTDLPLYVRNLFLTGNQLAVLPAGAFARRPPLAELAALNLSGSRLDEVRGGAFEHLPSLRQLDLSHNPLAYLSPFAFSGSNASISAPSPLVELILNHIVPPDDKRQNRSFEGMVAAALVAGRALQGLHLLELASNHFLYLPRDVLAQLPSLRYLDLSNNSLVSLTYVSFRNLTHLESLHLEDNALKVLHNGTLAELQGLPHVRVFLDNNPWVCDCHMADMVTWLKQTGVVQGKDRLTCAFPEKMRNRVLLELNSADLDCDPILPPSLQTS
Procedure: Purified anti-5T4 antibodies were diluted to 2 μg/mL and then injected into the Biacore™ 8K biosensor at 10 μL/min for about 50 seconds to achieve a desired protein density (e.g., about 50 response units (RU)). His-tagged 5T4 protein at a concentration of 200 nM was then injected at 30 μL/min for 180 seconds. Dissociation was monitored for 400 seconds. The chip was regenerated after the last injection of each titration with Glycine (pH 2.0), 30 μL/min for 30 seconds. For ISO control, an antibody targeting an irrelevant target protein was used.
As a person of ordinary skill in the art would understand, the same method with appropriate adjustments for parameters (e.g., antibody concentration) was performed for each tested antibody.

h5T4-His protein [2] = molecular target: T2, h5T4-His protein (human, UniProt Q13641 32-355, limits assumed); experiment: epitope binding assay, h5T4-His captured; binder = analyte 2; competitor (analyte 1): 35B12
T2 construct: also called His-tagged human 5T4 protein; not shown: His tag
T2 sequence (looked up): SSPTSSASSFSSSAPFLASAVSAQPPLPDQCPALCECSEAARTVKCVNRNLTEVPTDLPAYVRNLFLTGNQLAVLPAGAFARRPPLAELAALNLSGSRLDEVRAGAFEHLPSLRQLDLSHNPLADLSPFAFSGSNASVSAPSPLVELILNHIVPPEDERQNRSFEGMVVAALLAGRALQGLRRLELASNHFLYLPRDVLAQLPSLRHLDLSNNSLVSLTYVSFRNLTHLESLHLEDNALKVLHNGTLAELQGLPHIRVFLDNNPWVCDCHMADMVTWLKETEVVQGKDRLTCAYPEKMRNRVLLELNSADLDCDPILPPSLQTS
Procedure: (§1) Epitope binding assays were performed using ForteBio Octet system to determine whether two anti-5T4 antibodies target the same or overlapping epitopes. 1×HBS-EP+buffer (10 mM 4-(2-hydroxyethyl)-1-piperazineethanesulfonic acid (HEPES), 150 mM NaCl, 3 mM ethylenediaminetetraacetic acid (EDTA) and 0.05% P20, pH7.4) diluted from HBS-EP+buffer (10×) was used as the running buffer throughout the experiment. About 50 RU of h5T4-His protein was captured at a flow rate of 10 μL/min, and 200 nM of the tested antibody was injected at a flow rate of 30 μL/min to bind the ligand. Another comparison antibody was injected under the same conditions to determine whether the binding of different antibodies interfered with each other. The binding time was 180 s for each antibody.
(§2) The binding value of each antibody was obtained using Data Analysis HT 12.0. To quantify the interference of one antibody binding to another, a binding ratio was calculated to compare each pair of antibodies. The binding ratio is defined as the binding value of the second antibody (analyte 2), divided by the binding value of the first antibody (analyte 1). […] In general, antibody pairs that interfere with each other have the same or overlapping epitopes.

h5T4-His protein [3] = molecular target: T2, h5T4-His protein; experiment: epitope binding assay, h5T4-His captured; binder = analyte 2; competitor (analyte 1): 32G1
Procedure: as §1, §2

[4] = molecular target: T3, 5T4 on NCI-H226 cells, NCI-H2030 cells and HCC827 cells (UniProt Q13641 32-420, limits assumed); experiment: flow cytometry on HCC827 cells, Alexa Fluor 647 anti-human IgG Fc secondary antibody, MFI
T3 construct: whole, on cells
T3 sequence (looked up): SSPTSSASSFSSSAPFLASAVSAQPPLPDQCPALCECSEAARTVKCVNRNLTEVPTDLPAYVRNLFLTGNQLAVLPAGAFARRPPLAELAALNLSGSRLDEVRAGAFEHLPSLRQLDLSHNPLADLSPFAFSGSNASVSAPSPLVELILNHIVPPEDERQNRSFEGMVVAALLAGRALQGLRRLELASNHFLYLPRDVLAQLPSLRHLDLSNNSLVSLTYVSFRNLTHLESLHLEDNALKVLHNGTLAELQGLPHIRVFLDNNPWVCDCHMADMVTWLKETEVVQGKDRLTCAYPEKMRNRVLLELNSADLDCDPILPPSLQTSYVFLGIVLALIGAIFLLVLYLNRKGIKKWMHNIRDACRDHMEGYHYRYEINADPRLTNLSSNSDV
Procedure: NCI-H226 cells, NCI-H2030 cells or HCC827 cells were plated in a 96-well plate at a density of 2×10⁵ cells/well. Serially diluted purified anti-5T4 antibody 32G1 or the positive control PF06263507 analog-SI (maximum concentration: 20 μg/mL, 2-fold dilutions, 12 gradients) were added to each well and were incubated at 4° C. for 30 minutes. Then, after one wash with PBS, the cells were incubated with the secondary antibody Alexa Fluor® 647 anti human IgG Fcγ (Jackson ImmunoResearch Laboratories, Inc., Cat #: 109-606-170) at 4° C. for 15 minutes before flow cytometry analysis.
The cells were collected, and the mean fluorescence intensity (MFI) was determined.

h5T4-His protein [5] = molecular target: T2, h5T4-His protein; experiment: epitope binding assay, h5T4-His captured; binder = analyte 2; competitor (analyte 1): 35C6
Procedure: as §1, §2

- Kd [1]: 70.1 nM
- koff [1]: 12.3 s⁻¹
- kon [1]: 1.75e+08 M⁻¹ s⁻¹
- binding ratio (h5T4-His protein [2]): -0.02
- binding ratio (h5T4-His protein [3]): 0.01
- EC50 (read off the curve) [4]: ~0.8 µg/mL
- binding ratio (h5T4-His protein [5]): 1.03
B1: 32G1 (antibody, V domains shown)
VH: QVQLVQSGGGLVKPGGSLRLSCVASGFTFSDYYMNWVRQAPGKGLEWISYVGTESIYTYYADTVKGRFTISRDNAKNSLYLQMNSLRAEDTALYYCARARDYNLYGMDVWGQGTTVTVSS
VL: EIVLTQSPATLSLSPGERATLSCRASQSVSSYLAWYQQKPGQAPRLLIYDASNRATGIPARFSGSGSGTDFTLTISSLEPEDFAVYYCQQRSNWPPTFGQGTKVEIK
notes: also called anti-5T4 antibody 32G1
